From patent US20120079614A1 (ROYAL INSTITUTION FOR THE ADVANCEMENT OF LEARNING MCGILL …, published 2012)
Values belong to the binder of their own block, whether it stands above or below them.

Assays:
[1] = molecular target: T1, soluble CD109 protein (full-length recombinant CD109) (human, UniProt Q6YHK3 22-1420, limits assumed); assay: SPR, BIACORE 3000; CD109 amine-coupled on CM5 chip, TGF-β as analyte
T1 construct: also called FL CD109; CD109 soluble full-length protein
T1 sequence: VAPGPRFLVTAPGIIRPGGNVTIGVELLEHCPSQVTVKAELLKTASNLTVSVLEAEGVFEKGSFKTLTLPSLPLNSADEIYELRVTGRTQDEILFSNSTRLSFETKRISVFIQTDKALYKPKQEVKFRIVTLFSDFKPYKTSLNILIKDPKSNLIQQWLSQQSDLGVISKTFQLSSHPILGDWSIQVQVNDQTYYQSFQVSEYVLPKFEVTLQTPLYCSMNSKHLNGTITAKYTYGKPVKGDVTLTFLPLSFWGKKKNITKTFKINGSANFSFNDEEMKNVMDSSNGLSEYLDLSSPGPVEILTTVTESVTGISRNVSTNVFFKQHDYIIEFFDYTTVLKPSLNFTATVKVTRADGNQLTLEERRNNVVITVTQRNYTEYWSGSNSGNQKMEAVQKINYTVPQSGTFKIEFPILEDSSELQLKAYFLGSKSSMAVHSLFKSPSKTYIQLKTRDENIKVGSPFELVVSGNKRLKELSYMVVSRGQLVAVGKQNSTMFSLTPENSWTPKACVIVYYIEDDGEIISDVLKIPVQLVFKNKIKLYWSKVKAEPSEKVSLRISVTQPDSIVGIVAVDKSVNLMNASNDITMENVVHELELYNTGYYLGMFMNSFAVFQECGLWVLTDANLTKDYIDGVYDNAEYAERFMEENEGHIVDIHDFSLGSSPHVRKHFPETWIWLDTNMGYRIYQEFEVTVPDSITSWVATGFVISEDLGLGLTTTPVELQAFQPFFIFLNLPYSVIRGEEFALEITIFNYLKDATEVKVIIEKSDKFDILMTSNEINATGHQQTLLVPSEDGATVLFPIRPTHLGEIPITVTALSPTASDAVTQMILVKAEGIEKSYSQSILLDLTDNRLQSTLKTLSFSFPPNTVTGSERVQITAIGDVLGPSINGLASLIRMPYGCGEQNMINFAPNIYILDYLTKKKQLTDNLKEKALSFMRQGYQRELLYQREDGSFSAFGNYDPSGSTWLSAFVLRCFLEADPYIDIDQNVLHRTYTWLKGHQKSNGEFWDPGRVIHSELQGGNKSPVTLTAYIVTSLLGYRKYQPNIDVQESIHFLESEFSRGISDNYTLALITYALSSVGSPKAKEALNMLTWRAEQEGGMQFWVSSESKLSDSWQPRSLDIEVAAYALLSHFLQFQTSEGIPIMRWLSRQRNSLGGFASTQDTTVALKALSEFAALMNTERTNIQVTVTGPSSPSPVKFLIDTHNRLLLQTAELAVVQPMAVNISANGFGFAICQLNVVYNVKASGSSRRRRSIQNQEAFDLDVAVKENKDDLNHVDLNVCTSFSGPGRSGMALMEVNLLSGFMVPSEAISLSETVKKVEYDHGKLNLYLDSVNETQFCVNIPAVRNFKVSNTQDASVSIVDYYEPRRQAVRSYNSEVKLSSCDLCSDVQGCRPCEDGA
Method: (§1) Surface plasmon resonance assay: CD109 protein and peptides were tested for their ability to bind TGF-β using surface plasmon resonance. CD109 protein and peptides were amine-coupled onto a gold-dextran CM5 sensor chip as the ligands and TGF-β1/2/3 in HBS-ET buffer as the analytes were pumped across the CD109 amine-coupled sensor chip and binding response was measured using BIACORE 3000™ SPR detection system.

[2] = molecular target: T2, Transforming Growth Factor-β1 (TGF-β1) (UniProt P01137 279-390, 125I label in the affinity labeling assays); assay: SPR, BIACORE 3000; Peptide A amine-coupled on CM5 chip, TGF-β1 as analyte
T2 construct: The background describes TGF-β as a 25 kDa growth factor; also called I125TGF-β1
T2 sequence (P01137 279-390 limits assumed): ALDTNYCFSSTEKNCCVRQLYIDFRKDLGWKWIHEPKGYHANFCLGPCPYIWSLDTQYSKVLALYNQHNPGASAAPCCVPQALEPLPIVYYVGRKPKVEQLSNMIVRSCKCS
Method: as §1

Kd [1]: 1 nM
B1: TGF-β2 (ligand, UniProt P61812 303-414, looked up)
chain: ALDAAYCFRNVQDNCCLRPLYIDFKRDLGWKWIHEPKGYNANFCAGACPYLWSSDTQHSRVLSLYNTINPEASASPCCVSQDLEPLTILYYIGKTPKIEQLSNMIVKSCKCS

Kd [2]: 10 nM
B2: CD109 Peptide A (CD109 amino acids 606-766) (peptide)
chain: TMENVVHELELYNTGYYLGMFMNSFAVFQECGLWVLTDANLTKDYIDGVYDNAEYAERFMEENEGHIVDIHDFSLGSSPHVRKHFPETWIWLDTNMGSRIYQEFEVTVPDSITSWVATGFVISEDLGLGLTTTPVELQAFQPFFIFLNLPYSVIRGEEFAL
notes: also called CD109-based peptide
